{"source": "IntAct's records for PubMed 19151722", "parents": {"B1": {"name": "Protein transport protein DSL1 (Saccharomyces cerevisiae), P53847 (parent)", "chain": "MESLFPNKGEIIRELLKDPLILKNDSKRSNGSELELDSSDLLQREAILANELNILDNLKTFLNLIKEVKTNLNILELENCYYSLQSLRKKMRNNAAYLKQSFNFQQSISTYVDTLHLELVSTLYKILTNGFWKITENSIQFTPTVEWGKDKVHIEYDTFMDFVAQQYFPKGSLDNQAWFILDMTSADSQEQVRAKLNTIMKEYMNLSRIVSMIKNSIFISGKEISYENEKNILVFSKSSSHGQHCVSTVLTSFEAVCDFMLDGLAFRDRKTLSYELGPLFNTEFTKFVKNNASIILESLDSPLKNLVSVINNKLTRLVAKSEVTNWTHSGKEIQDLLMNKQLYYNLLLDKVLESHISEIRSIFEDPKKSWQNLEVVELTTSNTNTMSEKIGKNDSDVQNEKELHNAVSKDDDWNWEVEDDDADAWGDEIDVNIDDEEEKTNQEKEKEPEEEENAWDEAWAIDENIDDASLENGKEHLKAHDVGSLDKDHIEVTQLPKLFLAISQNFKSSFADSHVDEQYFAYKYNLLQTSYMAMCTANFSHNWCQLYVDMRYLIERDEKLYRIKELTRNLLETKLNMKYRIVCQLIRHQLTEFRENERNPSWDATIEKLLPYILKEIVRPLQKIRGEEGSRYLLSFLNFLYNDCVTKEILKWQIISEVNSENLGELVSLLVNNTDIQLLAKEPSYKKMREKFATMGKFLPLHLKEIMEMFYNGDFYLFATDELIQWIELLFADTPLRRNAIDDIYEIRGTALDD", "partner": "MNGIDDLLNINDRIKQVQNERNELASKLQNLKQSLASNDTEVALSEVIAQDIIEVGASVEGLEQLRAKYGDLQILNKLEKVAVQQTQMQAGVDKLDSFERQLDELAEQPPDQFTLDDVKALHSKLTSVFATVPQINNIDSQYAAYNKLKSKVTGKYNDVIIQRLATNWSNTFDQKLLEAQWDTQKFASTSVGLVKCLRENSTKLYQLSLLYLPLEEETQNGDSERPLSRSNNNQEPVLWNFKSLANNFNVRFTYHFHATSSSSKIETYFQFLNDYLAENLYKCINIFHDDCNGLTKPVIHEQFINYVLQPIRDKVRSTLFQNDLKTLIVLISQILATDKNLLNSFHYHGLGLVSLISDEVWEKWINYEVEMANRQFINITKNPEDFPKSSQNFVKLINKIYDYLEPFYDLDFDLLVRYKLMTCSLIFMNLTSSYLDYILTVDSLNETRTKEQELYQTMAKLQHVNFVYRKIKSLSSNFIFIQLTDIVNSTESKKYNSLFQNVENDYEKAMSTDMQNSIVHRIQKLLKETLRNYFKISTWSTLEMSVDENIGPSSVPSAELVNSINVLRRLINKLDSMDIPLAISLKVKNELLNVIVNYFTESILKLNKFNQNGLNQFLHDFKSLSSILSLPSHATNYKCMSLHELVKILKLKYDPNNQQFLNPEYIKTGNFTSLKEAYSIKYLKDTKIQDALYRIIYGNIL"}, "B2": {"name": "Protein transport protein TIP20 (Saccharomyces cerevisiae), P33891 (parent)", "chain": "B1 partner", "partner": "B1 chain"}}, "data": [{"variants_of": "B1", "conditions": "with tip20_yeast TIP20, P33891", "values": [{"variant": "L58D", "effect of a mutation on the interaction": "disrupting interaction"}, {"variant": "L48E", "effect of a mutation on the interaction": "disrupting interaction"}, {"variant": "L55E", "effect of a mutation on the interaction": "disrupting interaction"}]}, {"variants_of": "B2", "conditions": "with dsl1_yeast DSL1, P53847", "values": [{"variant": "V17E", "effect of a mutation on the interaction": "disrupting interaction"}, {"variant": "I10D;L28E", "effect of a mutation on the interaction": "disrupting interaction"}]}]}
